# Reference: the supplement of paper PMC10065799, “High-throughput profiling of sequence recognition by tyrosine kinases and SH2 domains using bacterial peptide display” (eLife, 2023)
# Biological target: FGFR3 (UniProt P22607)
# Test: phosphorylation enrichment, bacterial display (enrichment ratio); higher = better substrate or ligand; peptides without Tyr show the background
# 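Further: 11-residue human phosphosite peptides and single-mutation variants displayed on the E. coli surface, counted by deep sequencing, each peptide's frequency after selection divided by its frequency in the unselected input library; frequency after pTyr selection over input frequency; kinase dosed for 20-30% of maximal phosphorylation in three min.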
# Sequence of FGFR3 (P22607 whole entry, looked up): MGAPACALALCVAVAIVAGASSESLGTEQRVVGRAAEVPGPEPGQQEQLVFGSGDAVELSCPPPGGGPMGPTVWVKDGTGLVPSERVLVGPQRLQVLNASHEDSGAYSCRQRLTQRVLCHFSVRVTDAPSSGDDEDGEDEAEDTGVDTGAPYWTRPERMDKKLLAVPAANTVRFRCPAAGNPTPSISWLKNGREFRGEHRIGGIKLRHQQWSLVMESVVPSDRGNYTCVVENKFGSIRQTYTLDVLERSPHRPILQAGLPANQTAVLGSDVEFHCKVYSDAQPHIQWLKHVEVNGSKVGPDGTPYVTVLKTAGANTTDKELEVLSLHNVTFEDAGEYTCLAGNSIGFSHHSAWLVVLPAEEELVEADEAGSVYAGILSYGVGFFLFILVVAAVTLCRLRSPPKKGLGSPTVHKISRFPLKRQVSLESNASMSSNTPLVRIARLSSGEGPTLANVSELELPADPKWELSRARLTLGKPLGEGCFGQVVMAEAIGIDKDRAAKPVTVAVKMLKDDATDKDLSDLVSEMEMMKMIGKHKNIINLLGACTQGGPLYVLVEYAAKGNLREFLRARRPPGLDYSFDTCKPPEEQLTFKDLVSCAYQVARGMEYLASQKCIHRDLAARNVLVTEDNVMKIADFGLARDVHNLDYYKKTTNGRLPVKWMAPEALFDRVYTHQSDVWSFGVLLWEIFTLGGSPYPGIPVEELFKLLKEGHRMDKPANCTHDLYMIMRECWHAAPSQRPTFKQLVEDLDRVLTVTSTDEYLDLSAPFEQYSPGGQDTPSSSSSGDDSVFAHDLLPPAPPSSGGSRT
row,Sequence,phosphorylation enrichment
1,SQQTFYRVSNM [ABCD1_Y181_YF],0.575
2,VRKRSYSAGNA [KANK1_Y324],0.492
3,KRRGPYETSPS [PLPP7_Y172],0.397
4,KSLFHHRQFSA [CPS1_Y1491_Y1491H_YF],0.373
5,QQLVAYFSKHA [SRC_Y232_YF],0.813
6,QNTGHYSSENT [TMEFF2_Y361_D364E],0.548
7,SLLTDDSPQLQ [OTC_Y345_Y345D],0.764
8,ESDYPYSSSYE [SRPK2_Y427_T426P],0.789
9,CQGSLYPSNHD [LRIG1_Y996],0.551
10,STEVIYLPRRK [STK11_Y36_Q37L],0.53
11,IEDPFYGNDFD [ACP1_Y133_S137F_YF],0.806
12,GVLDIYGFDIL [MYO1A_Y382_E385D],0.621
13,FNNFGYGNDGF [HNRNPH3_Y161_YF],0.557
14,LSSEMYVKSFT [F5_Y2149_YF],0.975
15,NNRVFYDNSDR [RS1_Y177_G178D],0.471
16,AGEGSYALDSE [PES1_Y265_T264S],0.719
17,TFGVVYRAKDK [CDK11B_Y453_YF],0.506
18,EREFKYGAHNH [OAT_Y50_Y55H_YF],0.368
19,RFLRGYEQDAF [HLA-A_Y137_R138E_YF],0.586
20,EKLQKYYRQNP [EHHADH_Y682],0.497
21,QRIYQYIQSRF [DYRK1B_Y273],2
22,RMSRSYPTGLA [ADM_Y52_S50R],0.459
23,RTVDVYFGPRM [KIRREL3_Y332],1.23
24,KVALPYKPYFY [POLE_Y100],0.658
25,NFPGGYSGSVK [MCPH1_Y606_L602F],0.47
26,HYMELYDLNRD [BBS2_Y648_R643H],2.94
27,GGFTCYSDGKK [PROS1_Y266_C267S_YF],0.933
28,LRRQDYQEILD [SLC35G2_Y403_K400R],0.783
29,KNEIFYQCPDQ [FBXO3_Y223_V221I],1.02

# Biological target: MERTK (UniProt Q12866)
# Sequence (Q12866 whole entry, looked up): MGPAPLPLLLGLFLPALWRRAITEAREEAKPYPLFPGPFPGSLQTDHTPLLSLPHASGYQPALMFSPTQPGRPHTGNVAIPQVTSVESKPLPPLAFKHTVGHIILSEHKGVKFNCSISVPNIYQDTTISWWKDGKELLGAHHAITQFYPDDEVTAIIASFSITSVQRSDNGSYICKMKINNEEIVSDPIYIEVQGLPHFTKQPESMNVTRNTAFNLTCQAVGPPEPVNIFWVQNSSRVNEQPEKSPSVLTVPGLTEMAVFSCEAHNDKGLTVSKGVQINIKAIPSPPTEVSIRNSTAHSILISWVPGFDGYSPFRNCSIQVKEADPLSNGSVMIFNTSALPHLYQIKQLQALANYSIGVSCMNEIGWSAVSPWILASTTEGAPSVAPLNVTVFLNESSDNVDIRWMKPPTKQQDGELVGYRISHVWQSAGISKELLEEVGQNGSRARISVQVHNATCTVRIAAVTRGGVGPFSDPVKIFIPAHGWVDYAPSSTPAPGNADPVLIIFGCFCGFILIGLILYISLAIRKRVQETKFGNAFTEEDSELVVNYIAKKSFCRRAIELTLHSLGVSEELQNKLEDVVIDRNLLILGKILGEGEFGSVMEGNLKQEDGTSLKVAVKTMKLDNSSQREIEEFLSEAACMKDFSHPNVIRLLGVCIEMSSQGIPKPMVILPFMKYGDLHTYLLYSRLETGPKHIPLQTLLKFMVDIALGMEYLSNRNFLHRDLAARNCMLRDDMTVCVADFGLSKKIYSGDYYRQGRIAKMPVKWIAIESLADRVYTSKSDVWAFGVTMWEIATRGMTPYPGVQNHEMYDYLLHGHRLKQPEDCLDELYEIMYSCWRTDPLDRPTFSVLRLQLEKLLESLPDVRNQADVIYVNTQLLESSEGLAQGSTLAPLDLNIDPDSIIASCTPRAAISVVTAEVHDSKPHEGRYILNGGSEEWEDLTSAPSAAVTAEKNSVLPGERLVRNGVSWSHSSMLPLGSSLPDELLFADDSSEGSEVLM
# Test: as above
row,Sequence,phosphorylation enrichment
1,SQQTFYRVSNM [ABCD1_Y181_YF],0.388
2,VRKRSYSAGNA [KANK1_Y324],0.444
3,KRRGPYETSPS [PLPP7_Y172],0.405
4,KSLFHHRQFSA [CPS1_Y1491_Y1491H_YF],0.36
5,QQLVAYFSKHA [SRC_Y232_YF],0.573
6,QNTGHYSSENT [TMEFF2_Y361_D364E],0.908
7,SLLTDDSPQLQ [OTC_Y345_Y345D],0.538
8,ESDYPYSSSYE [SRPK2_Y427_T426P],0.513
9,CQGSLYPSNHD [LRIG1_Y996],0.391
10,STEVIYLPRRK [STK11_Y36_Q37L],0.618
11,IEDPFYGNDFD [ACP1_Y133_S137F_YF],0.392
12,GVLDIYGFDIL [MYO1A_Y382_E385D],0.465
13,FNNFGYGNDGF [HNRNPH3_Y161_YF],0.491
14,LSSEMYVKSFT [F5_Y2149_YF],0.641
15,NNRVFYDNSDR [RS1_Y177_G178D],0.42
16,AGEGSYALDSE [PES1_Y265_T264S],0.568
17,TFGVVYRAKDK [CDK11B_Y453_YF],0.396
18,EREFKYGAHNH [OAT_Y50_Y55H_YF],0.439
19,RFLRGYEQDAF [HLA-A_Y137_R138E_YF],0.536
20,EKLQKYYRQNP [EHHADH_Y682],0.371
21,QRIYQYIQSRF [DYRK1B_Y273],6.41
22,RMSRSYPTGLA [ADM_Y52_S50R],0.454
23,RTVDVYFGPRM [KIRREL3_Y332],0.591
24,KVALPYKPYFY [POLE_Y100],0.556
25,NFPGGYSGSVK [MCPH1_Y606_L602F],0.365
26,HYMELYDLNRD [BBS2_Y648_R643H],4.26
27,GGFTCYSDGKK [PROS1_Y266_C267S_YF],0.437
28,LRRQDYQEILD [SLC35G2_Y403_K400R],0.622
29,KNEIFYQCPDQ [FBXO3_Y223_V221I],2.55

# Biological target: EPHB2 (UniProt P29323)
# Sequence (P29323 whole entry, looked up): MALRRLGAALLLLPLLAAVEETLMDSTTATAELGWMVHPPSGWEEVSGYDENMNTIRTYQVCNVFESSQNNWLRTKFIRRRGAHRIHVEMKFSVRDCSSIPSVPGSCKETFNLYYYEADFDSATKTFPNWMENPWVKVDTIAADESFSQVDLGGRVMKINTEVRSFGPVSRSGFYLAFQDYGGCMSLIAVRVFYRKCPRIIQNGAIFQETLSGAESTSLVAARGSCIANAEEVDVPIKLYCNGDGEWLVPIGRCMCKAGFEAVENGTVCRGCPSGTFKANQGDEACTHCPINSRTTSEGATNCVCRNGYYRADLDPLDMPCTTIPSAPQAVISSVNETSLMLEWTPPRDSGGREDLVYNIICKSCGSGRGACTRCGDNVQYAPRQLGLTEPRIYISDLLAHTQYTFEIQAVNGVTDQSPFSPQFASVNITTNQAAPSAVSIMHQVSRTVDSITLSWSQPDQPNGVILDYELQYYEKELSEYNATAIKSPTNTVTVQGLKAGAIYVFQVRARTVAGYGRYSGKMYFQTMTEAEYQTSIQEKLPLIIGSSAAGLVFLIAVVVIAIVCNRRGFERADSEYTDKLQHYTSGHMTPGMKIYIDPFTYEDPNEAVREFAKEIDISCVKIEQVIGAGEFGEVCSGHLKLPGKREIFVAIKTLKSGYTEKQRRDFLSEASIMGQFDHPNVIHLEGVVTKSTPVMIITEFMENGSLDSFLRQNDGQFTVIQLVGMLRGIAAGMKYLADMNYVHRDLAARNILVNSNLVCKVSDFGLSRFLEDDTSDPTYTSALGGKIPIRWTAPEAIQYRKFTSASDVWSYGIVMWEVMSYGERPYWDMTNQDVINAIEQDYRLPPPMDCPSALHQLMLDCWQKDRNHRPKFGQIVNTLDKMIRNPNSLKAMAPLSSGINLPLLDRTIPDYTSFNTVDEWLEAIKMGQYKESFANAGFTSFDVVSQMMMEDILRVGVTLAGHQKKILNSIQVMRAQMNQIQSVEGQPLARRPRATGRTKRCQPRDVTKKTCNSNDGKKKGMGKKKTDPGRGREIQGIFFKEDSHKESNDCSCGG
# Test: as above
row,Sequence,phosphorylation enrichment
1,SQQTFYRVSNM [ABCD1_Y181_YF],0.507
2,VRKRSYSAGNA [KANK1_Y324],0.436
3,KRRGPYETSPS [PLPP7_Y172],0.403
4,KSLFHHRQFSA [CPS1_Y1491_Y1491H_YF],0.295
5,QQLVAYFSKHA [SRC_Y232_YF],0.547
6,QNTGHYSSENT [TMEFF2_Y361_D364E],0.389
7,SLLTDDSPQLQ [OTC_Y345_Y345D],0.548
8,ESDYPYSSSYE [SRPK2_Y427_T426P],0.649
9,CQGSLYPSNHD [LRIG1_Y996],0.531
10,STEVIYLPRRK [STK11_Y36_Q37L],0.588
11,IEDPFYGNDFD [ACP1_Y133_S137F_YF],0.644
12,GVLDIYGFDIL [MYO1A_Y382_E385D],0.566
13,FNNFGYGNDGF [HNRNPH3_Y161_YF],0.518
14,LSSEMYVKSFT [F5_Y2149_YF],0.788
15,NNRVFYDNSDR [RS1_Y177_G178D],0.442
16,AGEGSYALDSE [PES1_Y265_T264S],0.629
17,TFGVVYRAKDK [CDK11B_Y453_YF],0.592
18,EREFKYGAHNH [OAT_Y50_Y55H_YF],0.228
19,RFLRGYEQDAF [HLA-A_Y137_R138E_YF],0.555
20,EKLQKYYRQNP [EHHADH_Y682],0.543
21,QRIYQYIQSRF [DYRK1B_Y273],1.63
22,RMSRSYPTGLA [ADM_Y52_S50R],0.349
23,RTVDVYFGPRM [KIRREL3_Y332],1.33
24,KVALPYKPYFY [POLE_Y100],0.438
25,NFPGGYSGSVK [MCPH1_Y606_L602F],0.379
26,HYMELYDLNRD [BBS2_Y648_R643H],1.45
27,GGFTCYSDGKK [PROS1_Y266_C267S_YF],0.586
28,LRRQDYQEILD [SLC35G2_Y403_K400R],0.898
29,KNEIFYQCPDQ [FBXO3_Y223_V221I],1.07

# Test system: AncSZ
# Test: as above
row,Sequence,phosphorylation enrichment
1,SQQTFYRVSNM [ABCD1_Y181_YF],0.564
2,VRKRSYSAGNA [KANK1_Y324],0.615
3,KRRGPYETSPS [PLPP7_Y172],0.599
4,KSLFHHRQFSA [CPS1_Y1491_Y1491H_YF],0.448
5,QQLVAYFSKHA [SRC_Y232_YF],0.972
6,QNTGHYSSENT [TMEFF2_Y361_D364E],0.66
7,SLLTDDSPQLQ [OTC_Y345_Y345D],1.14
8,ESDYPYSSSYE [SRPK2_Y427_T426P],1.19
9,CQGSLYPSNHD [LRIG1_Y996],0.879
10,STEVIYLPRRK [STK11_Y36_Q37L],0.624
11,IEDPFYGNDFD [ACP1_Y133_S137F_YF],1.27
12,GVLDIYGFDIL [MYO1A_Y382_E385D],0.978
13,FNNFGYGNDGF [HNRNPH3_Y161_YF],0.828
14,LSSEMYVKSFT [F5_Y2149_YF],1.35
15,NNRVFYDNSDR [RS1_Y177_G178D],0.603
16,AGEGSYALDSE [PES1_Y265_T264S],1.24
17,TFGVVYRAKDK [CDK11B_Y453_YF],0.831
18,EREFKYGAHNH [OAT_Y50_Y55H_YF],0.524
19,RFLRGYEQDAF [HLA-A_Y137_R138E_YF],0.935
20,EKLQKYYRQNP [EHHADH_Y682],0.523
21,QRIYQYIQSRF [DYRK1B_Y273],3.1
22,RMSRSYPTGLA [ADM_Y52_S50R],0.497
23,RTVDVYFGPRM [KIRREL3_Y332],1.15
24,KVALPYKPYFY [POLE_Y100],0.778
25,NFPGGYSGSVK [MCPH1_Y606_L602F],0.354
26,HYMELYDLNRD [BBS2_Y648_R643H],1.5
27,GGFTCYSDGKK [PROS1_Y266_C267S_YF],1.3
28,LRRQDYQEILD [SLC35G2_Y403_K400R],1.35
29,KNEIFYQCPDQ [FBXO3_Y223_V221I],2.23
